Test results from paper PMC7865324.

Molecular target: citrate synthase (CS) from porcine heart (porcine) (UniProt P00889)
UniProt P00889, sequence (P00889 28-464): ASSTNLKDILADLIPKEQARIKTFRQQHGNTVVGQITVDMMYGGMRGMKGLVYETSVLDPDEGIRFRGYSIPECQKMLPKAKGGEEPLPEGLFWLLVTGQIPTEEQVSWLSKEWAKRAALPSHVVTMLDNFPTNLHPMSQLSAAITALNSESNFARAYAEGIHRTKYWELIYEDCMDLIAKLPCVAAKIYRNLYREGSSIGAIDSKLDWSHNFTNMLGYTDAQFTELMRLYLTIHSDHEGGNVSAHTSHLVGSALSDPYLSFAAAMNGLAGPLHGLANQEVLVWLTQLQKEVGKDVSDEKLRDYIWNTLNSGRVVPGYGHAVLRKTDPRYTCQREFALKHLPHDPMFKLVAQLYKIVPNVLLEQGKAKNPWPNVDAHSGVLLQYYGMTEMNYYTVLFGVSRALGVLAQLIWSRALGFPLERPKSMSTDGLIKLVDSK

recombinant ZnJ6 (Cre06.g251716.t1.2) fused to the streptavidin-binding peptide (SBP) tag (natural protein)
citrate synthase thermal aggregation assay (OD360, 42 °C, 1 h): percent of CS kept soluble, ZnJ6:CS 0.1:1 to 10:1: 86%
